# In IntAct's records for PubMed 17517630:
# B1: Rho GTPase-activating protein 7 (Homo sapiens), Q96QB1-1 (parent)
# chain: MCRKKPDTMILTQIEAKEACDWLRATGFPQYAQLYEDFLFPIDISLVKREHDFLDRDAIEALCRRLNTLNKCAVMKLEISPHRKRSDDSDEDEPCAISGKWTFQRDSKRWSRLEEFDVFSPKQDLVPGSPDDSHPKDGPSPGGTLMDLSERQEVSSVRSLSSTGSLPSHAPPSEDAATPRTNSVISVCSSSNLAGNDDSFGSLPSPKELSSFSFSMKGHEKTAKSKTRSLLKRMESLKLKSSHHSKHKAPSKLGLIISGPILQEGMDEEKLKQLNCVEISALNGNRINVPMVRKRSVSNSTQTSSSSSQSETSSAVSTPSPVTRTRSLSACNKRVGMYLEGFDPFNQSTFNNVVEQNFKNRESYPEDTVFYIPEDHKPGTFPKALTNGSFSPSGNNGSVNWRTGSFHGPGHISLRRENSSDSPKELKRRNSSSSMSSRLSIYDNVPGSILYSSSGDLADLENEDIFPELDDILYHVKGMQRIVNQWSEKFSDEGDSDSALDSVSPCPSSPKQIHLDVDNDRTTPSDLDSTGNSLNEPEEPSEIPERRDSGVGASLTRSNRHRLRWHSFQSSHRPSLNSVSLQINCQSVAQMNLLQKYSLLKLTALLEKYTPSNKHGFSWAVPKFMKRIKVPDYKDRSVFGVPLTVNVQRTGQPLPQSIQQAMRYLRNHCLDQVGLFRKSGVKSRIQALRQMNEGAIDCVNYEGQSAYDVADMLKQYFRDLPEPLMTNKLSETFLQIYQYVPKDQRLQAIKAAIMLLPDENREVLQTLLYFLSDVTAAVKENQMTPTNLAVCLAPSLFHLNTLKRENSSPRVMQRKQSLGKPDQKDLNENLAATQGLAHMIAECKKLFQVPEEMSRCRNSYTEQELKPLTLEALGHLGNDDSADYQHFLQDCVDGLFKEVKEKFKGWVSYSTSEQAELSYKKVSEGPPLRLWRSVIEVPAVPEEILKRLLKEQHLWDVDLLDSKVIEILDSQTEIYQYVQNSMAPHPARDYVVLRTWRTNLPKGACALLLTSVDHDRAPVVGVRVNVLLSRYLIEPCGPGKSKLTYMCRVDLRGHMPEWYTKSFGHLCAAEVVKIRDSFSNQNTETKDTKSR
# Variants of: B1
# Settings: with tens1_chick TNS1, Q04205
# Sequence of tens1_chick TNS1, Q04205 (Q04205 whole entry): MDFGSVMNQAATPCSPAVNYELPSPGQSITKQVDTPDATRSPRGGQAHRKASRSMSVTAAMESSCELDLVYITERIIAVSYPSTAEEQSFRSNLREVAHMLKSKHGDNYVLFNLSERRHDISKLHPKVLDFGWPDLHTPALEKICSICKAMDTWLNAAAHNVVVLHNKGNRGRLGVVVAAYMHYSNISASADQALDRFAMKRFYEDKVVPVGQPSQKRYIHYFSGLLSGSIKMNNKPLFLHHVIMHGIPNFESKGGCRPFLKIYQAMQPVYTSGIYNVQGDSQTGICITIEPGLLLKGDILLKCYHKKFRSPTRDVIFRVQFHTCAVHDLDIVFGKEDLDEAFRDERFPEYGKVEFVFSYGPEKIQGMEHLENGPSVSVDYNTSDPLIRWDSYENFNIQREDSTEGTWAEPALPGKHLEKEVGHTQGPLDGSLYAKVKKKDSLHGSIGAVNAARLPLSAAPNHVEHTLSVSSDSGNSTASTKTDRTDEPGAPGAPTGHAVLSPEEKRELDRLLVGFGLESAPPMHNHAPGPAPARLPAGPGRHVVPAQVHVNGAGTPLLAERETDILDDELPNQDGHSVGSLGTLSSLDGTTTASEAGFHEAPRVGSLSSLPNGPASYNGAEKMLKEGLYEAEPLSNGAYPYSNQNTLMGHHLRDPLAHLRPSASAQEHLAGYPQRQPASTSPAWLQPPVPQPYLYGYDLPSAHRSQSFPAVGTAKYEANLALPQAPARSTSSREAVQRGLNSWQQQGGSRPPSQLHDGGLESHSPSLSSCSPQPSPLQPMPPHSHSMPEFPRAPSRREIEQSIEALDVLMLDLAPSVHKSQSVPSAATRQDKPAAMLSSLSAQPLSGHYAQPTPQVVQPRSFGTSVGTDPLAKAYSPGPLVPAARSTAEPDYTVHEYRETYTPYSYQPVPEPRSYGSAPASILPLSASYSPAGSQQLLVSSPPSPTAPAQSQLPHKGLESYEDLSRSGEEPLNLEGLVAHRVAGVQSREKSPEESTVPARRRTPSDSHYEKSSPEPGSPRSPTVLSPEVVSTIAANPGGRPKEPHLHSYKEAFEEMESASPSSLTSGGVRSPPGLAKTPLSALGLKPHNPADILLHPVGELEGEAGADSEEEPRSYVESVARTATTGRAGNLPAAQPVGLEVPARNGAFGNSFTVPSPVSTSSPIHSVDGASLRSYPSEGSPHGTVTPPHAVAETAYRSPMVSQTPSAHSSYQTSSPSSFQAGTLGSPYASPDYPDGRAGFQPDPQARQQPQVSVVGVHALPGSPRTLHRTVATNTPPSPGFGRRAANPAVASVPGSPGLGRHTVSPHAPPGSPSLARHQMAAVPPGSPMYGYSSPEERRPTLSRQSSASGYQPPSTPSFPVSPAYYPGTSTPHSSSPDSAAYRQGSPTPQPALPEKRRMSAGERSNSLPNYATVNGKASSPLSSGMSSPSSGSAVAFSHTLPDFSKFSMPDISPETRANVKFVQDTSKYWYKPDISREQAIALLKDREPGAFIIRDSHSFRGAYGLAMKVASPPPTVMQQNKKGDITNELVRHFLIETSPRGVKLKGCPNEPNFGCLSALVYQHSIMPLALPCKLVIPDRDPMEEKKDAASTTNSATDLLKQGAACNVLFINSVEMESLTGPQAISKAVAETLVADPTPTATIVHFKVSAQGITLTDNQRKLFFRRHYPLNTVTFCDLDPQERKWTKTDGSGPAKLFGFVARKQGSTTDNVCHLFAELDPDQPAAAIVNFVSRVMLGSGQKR
row,Variant,effect of a mutation on the interaction
1,Y442F,disrupting interaction strength
